# In patent US20240294650A1:
# Tests used:
# [1] = target: endogenous murine MerTK on bone marrow-derived macrophages (mouse) (UniProt Q60805); assay: FACS, mouse BMDM, WT minus MerTK KO
# [2] = target: mouse MerTK overexpressed on CHO cells (mouse) (UniProt Q60805); assay: FACS, CHO-muMerTK OE cells, PE-conjugated control
# Sequence of mouse MerTK overexpressed on CHO cells (mouse) (Q60805 19-994): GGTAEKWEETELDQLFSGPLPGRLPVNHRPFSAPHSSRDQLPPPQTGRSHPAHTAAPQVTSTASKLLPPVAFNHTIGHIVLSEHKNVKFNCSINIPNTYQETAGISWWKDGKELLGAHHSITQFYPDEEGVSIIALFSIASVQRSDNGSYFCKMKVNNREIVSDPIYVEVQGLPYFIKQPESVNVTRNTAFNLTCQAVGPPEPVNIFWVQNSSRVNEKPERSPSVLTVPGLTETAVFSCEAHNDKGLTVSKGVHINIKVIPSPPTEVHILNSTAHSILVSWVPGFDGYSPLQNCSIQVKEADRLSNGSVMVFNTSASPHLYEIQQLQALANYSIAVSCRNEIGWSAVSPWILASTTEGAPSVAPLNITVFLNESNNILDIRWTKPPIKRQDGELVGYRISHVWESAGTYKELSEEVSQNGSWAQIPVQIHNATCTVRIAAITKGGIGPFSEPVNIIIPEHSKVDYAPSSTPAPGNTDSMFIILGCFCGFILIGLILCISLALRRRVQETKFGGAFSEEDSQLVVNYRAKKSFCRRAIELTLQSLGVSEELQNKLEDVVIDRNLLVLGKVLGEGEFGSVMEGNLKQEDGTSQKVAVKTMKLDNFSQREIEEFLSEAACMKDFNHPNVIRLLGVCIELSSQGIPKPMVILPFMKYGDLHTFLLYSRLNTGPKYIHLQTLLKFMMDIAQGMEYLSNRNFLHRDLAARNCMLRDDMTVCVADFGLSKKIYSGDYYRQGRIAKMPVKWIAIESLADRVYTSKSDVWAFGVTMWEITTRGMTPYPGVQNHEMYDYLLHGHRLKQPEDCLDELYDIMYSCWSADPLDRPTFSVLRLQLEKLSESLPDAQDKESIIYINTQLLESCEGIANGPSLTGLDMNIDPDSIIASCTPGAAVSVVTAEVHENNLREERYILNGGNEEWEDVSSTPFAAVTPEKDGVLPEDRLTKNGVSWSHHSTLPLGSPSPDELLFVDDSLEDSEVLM
# Sequence of endogenous murine MerTK on bone marrow-derived macrophages (mouse) (Q60805 19-994): as above
substance,measurement,setting,value
rat anti-mouse MerTK monoclonal antibody DS5MMER,MFI,[1],2800 MFI
same,MFI,[2],3500 MFI
